# Measured values: patent US20180364250A1 (COLORADO STATE UNIVERSITY RESEARCH FOUNDATION, published 2018)
# B1: Atto532-tagged tIV L1 Cys (designed binder)
# chain: MGSSHHHHHHSSGLVPRGSHMKQEVQAWDGEVRQVSKHAFSLKQLDNPARIPPSGWKCSKCDMRENLWLNLTDGSILCGRRYFDGSGGNNHAVEHYRETGYPLAVKLGTITPDGADVWSYDEDDMVLDPSLAEHLSHFGIDMLKMQKGSCAAAEEAELDLKAAIQESLREA
# modifications: Atto532 fluorophore on the Cys of linker 1 (the bold C of the 2nd table)
# notes: Two domains: IsoT^ZnF and Vps27^UIM; also called Atto532-tIV
# B2: tSR chimeric polypeptide sensor (designed binder)
# chain: MPSSHHHHHHSSGLVPRGSHMTEEEQIAYAMQMSLREAGGGSDLLCKKGCGYYGNPAWQGFCSKCWREEAHKCAAERAAAE
# notes: His-tag leader, S5a^UIM, linker, Ruz; also called tSR chimeric peptide universal sensor
# B3: Atto532-tagged IsoT^ZnF (S227C) (designed binder)
# chain: MPSSHHHHHHSSGLVPRGSHMKQEVQAWDGEVRQVSKHAFSLKQLDNPARIPPSGWKCSKCDMRENLWLNLTDGSILCGRRYFDGCGGNNHAVEHYRETGYPLAVKLGTITPDGADVYSYDEDDMVLDPSLAEHLSHFGIDMLKMQK
# modifications: Atto532 fluorophore on the Cys of S227C (the bold C of the 2nd table)
# B4: Alexa488-tagged tSR (designed binder)
# chain: B2 chain
# modifications: Alexa488 fluorophore, attachment site not stated
# notes: also called Alexa488 tSR; fluorophore-tagged tSR
# Legend:
# [1] = biological target: T1, Nedd8 (human, UniProt Q15843 1-76); test: fluorescence intensity, free Nedd8 titrated into Atto532-tIV
# T1 construct: also called free Nedd8; Nedd8 protein
# T1 sequence (Q15843 1-76 limits assumed): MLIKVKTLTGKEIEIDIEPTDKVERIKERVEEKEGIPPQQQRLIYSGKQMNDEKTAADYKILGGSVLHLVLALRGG
# [2] = biological target: T2, Ubiquitin (free, untagged) (human, UniProt P0CG48 1-76); test: fluorescence intensity of the Atto532-tagged sensor against free ubiquitin concentration, single-site fit
# T2 construct: also called free ubiquitin; unconjugated ubiquitin protein
# [3] = biological target: T2, Ubiquitin (free, untagged); test: relative fluorescence competition against 5 nM Atto532-tagged ubiquitin on 600 nM tSR
# [4] = biological target: T1, Nedd8; test: direct titration, relative fluorescence of 10 nM Alexa488 tSR
binder,measurement,setting,value
B1,Kd,[1],9.4 µM
same,binding result,[2],binds
B2,binding result,[3],binds
B3,binding result,[2],binds
B4,binding result,[4],no binding
